Measured values taken from paper PMC12439145.
pKd: −log10 of the molar value.

Assays:
Experiment in all cases: flow cytometry
Conditions in all cases: apparent Kd on cells; SPR at 25 C, His-KIT on CM5 chip, 50 mM NaOH regeneration; flow cytometry with 250 nM Cy5-aptamer in binding buffer with 1 mg/ml BSA and 1 mM yeast tRNA; salt …
[1] = target: KIT on GIST-430/654 cells (human (GIST-430/654)) (UniProt P10721)
[2] = target: KIT on GIST-T1 cells (human (GIST-T1)) (UniProt P10721)
[3] = target: KIT on GIST-430 cells (human (GIST-430)) (UniProt P10721)
Sequence of KIT on GIST-430 cells (human (GIST-430)) (P10721 26-976): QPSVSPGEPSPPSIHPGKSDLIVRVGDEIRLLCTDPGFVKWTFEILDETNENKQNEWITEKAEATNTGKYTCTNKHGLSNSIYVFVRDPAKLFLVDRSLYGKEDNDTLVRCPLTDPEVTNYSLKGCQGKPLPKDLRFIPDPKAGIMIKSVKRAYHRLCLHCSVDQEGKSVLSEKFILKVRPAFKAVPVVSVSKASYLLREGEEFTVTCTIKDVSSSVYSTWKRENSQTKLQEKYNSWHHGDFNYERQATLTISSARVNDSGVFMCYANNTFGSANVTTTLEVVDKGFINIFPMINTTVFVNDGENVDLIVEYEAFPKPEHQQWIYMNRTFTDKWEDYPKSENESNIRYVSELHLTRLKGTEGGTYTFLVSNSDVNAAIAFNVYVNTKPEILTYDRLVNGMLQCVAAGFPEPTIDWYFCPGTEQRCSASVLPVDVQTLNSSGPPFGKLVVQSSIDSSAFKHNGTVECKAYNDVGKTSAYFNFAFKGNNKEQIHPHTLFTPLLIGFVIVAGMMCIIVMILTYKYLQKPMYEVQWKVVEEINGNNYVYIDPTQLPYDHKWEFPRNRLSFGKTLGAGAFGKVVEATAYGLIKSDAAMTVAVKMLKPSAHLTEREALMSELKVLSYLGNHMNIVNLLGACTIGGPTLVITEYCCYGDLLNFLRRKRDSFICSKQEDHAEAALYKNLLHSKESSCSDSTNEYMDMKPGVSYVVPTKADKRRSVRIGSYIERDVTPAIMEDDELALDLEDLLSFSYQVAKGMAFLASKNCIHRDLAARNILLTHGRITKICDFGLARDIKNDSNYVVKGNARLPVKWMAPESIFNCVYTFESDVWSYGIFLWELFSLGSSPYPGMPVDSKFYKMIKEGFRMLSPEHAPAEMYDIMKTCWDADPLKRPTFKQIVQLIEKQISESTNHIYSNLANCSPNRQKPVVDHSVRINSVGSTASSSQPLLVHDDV

Sequence of KIT on GIST-T1 cells (human (GIST-T1)) (P10721 26-976): as above
Sequence of KIT on GIST-430/654 cells (human (GIST-430/654)) (P10721 26-976): as above

ATTCAAGGGGCCGGGGCAAGGGGGGGGTACCGTGGTAGGACATAGT [KIT-d]
pKd [1]: 6.96
pKd [2]: 7.12
pKd [3]: 7.38
